Numbering of substitutions follows the chain as printed.
T1: Human PTK7 Protein, His Tag (Acro Biosystems) (human, UniProt Q13308 31-704)
T1 construct: Bought His-tagged recombinant human PTK7; also called CCK4; Tyrosine-protein kinase-like 7
T1 sequence: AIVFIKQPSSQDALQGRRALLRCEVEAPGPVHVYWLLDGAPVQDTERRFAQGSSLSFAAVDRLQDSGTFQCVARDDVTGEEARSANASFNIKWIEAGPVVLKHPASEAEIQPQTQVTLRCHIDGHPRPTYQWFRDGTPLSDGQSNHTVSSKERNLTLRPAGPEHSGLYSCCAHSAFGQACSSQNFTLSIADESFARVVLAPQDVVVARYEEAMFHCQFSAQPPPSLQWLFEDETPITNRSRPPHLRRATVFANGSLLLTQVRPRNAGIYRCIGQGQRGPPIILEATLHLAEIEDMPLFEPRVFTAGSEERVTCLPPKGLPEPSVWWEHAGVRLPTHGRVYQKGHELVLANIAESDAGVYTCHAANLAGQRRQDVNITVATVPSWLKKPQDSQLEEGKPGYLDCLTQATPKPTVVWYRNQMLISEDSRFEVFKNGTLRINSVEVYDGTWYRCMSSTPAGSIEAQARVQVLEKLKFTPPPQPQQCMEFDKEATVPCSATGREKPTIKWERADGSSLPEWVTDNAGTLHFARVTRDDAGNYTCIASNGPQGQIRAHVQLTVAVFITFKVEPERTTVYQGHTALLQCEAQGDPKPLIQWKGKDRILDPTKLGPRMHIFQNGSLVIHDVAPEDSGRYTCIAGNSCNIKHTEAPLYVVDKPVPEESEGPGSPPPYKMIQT

T2: Human PTK7 Protein, His Tag, Acro Biosystems (human, UniProt Q13308 31-704)
T2 construct: Bought recombinant protein; also called CCK4; not shown: His tag
T2 sequence: T1 sequence

B1: MYT10951 (antibody, V domains shown)
VH: EVQLVESGGGLVQPGGSLRLSCTASHFSLSSYAMGWVRQAPGKGLEWVGFINAGGNTYYANWAKGRFTISRDTSKNTVYLQMNSLRAEDTAVYFCARRYSRASGWYDLWGQGTLVTVSS
VL: EIVMTQSPSTLSASVGDRVIITCQASQSISSYLAWYQQKPGKAPKLLIYAASTLASGVPSRFSGSGSGAEFTLTISSLQPDDFATYYCQSYSYSSGIDYGDVFGQGTKLTVL
notes: MYT9359 HC variant; captured on anti-human Fc sensor
B2: MYT10978 (antibody, V domains shown)
VH: B1 VH with H26G, R97H
VL: B1 VL
notes: as for B1
B3: MYT10970 (antibody, V domains shown)
VH: B1 VH with H26G, Y59H
VL: B1 VL
notes: as for B1
B4: MYT10969 (antibody, V domains shown)
VH: B1 VH with H26G, Y58H
VL: B1 VL
notes: as for B1
B5: MYT10998 (antibody, V domains shown)
VH: B1 VH with H26G
VL: B1 VL with S30H
notes: MYT9359 LC variant; captured on anti-human Fc sensor
B6: MYT10991 (antibody, V domains shown)
VH: B1 VH with H26G, D107A
VL: B1 VL
notes: MYT9359 HC alanine variant; captured on anti-human Fc sensor
B7: MYT10966 (antibody, V domains shown)
VH: B1 VH with H26G, G55H
VL: B1 VL
notes: as for B1
B8: MYT10974 (antibody, V domains shown)
VH: B1 VH with H26G, A63H
VL: B1 VL
notes: as for B1
B9: MYT10999 (antibody, V domains shown)
VH: B1 VH with H26G
VL: B1 VL with S31H
notes: as for B5
B10: MYT10959 (antibody, V domains shown)
VH: B1 VH with H26G, M34H
VL: B1 VL
notes: as for B1
B11: MYT10980 (antibody, V domains shown)
VH: B1 VH with H26G, Y99H
VL: B1 VL
notes: as for B1
B12: MYT10993 (antibody, V domains shown)
VH: B1 VH with H26G
VL: B1 VL with A25H
notes: as for B5
B13: MYT11000 (antibody, V domains shown)
VH: B1 VH with H26G
VL: B1 VL with Y32H
notes: as for B5
B14: MYT10957 (antibody, V domains shown)
VH: B1 VH with H26G, Y32H
VL: B1 VL
notes: as for B1
B15: MYT10997 (antibody, V domains shown)
VH: B1 VH with H26G
VL: B1 VL with I29H
notes: as for B5
B16: MYT11001 (antibody, V domains shown)
VH: B1 VH with H26G
VL: B1 VL with L33H
notes: as for B5
B17: MYT10962 (antibody, V domains shown)
VH: B1 VH with H26G, I51H
VL: B1 VL
notes: as for B1
B18: MYT10963 (antibody, V domains shown)
VH: B1 VH with H26G, N52H
VL: B1 VL
notes: as for B1
B19: MYT10909 (antibody, V domains shown)
VH: EVQLVESGGGLVQPGGSLRLSCTASGFSLSNYVMNWVRQAPGKGLEWVGIIDSSGSTYYASWAHGRFTISRDTSKNTVYLQMNSLRAEDTAVYFCARGLYLWGQGTLVTVSS
VL: EIVMTQSPSTLSASVGDRVIITCQSSQSVYNNNLLAWYQQKPGKAPKLLIYYTSNLASGVPSRFSGSGSGAEFTLTISSLQPDDFATYYCQGGYNGNIYAFGQGTKLTVL
notes: MYT9345 variant, His at VH pos 64 (H2 15)
B20: MYT10947 (antibody, V domains shown)
VH: B19 VH with H64K
VL: B19 VL with Y99H
notes: MYT9345 variant, His at VL pos 99 (L3 09)
B21: MYT10941 (antibody, V domains shown)
VH: B19 VH with H64K
VL: B19 VL with G93H
notes: MYT9345 variant, His at VL pos 93 (L3 03)
B22: MYT10921 (antibody, V domains shown)
VH: B19 VH with H64K
VL: B19 VL with S26H
notes: MYT9345 variant, His at VL pos 26 (L1 03)
B23: MYT10929 (antibody, V domains shown)
VH: B19 VH with H64K
VL: B19 VL with L34H
notes: MYT9345 variant, His at VL pos 34 (L1 11)
B24: MYT10914 (antibody, V domains shown)
VH: B19 VH with H64K, L99H
VL: B19 VL
notes: MYT9345 variant, His at VH pos 99 (H3 04)
B25: MYT10945 (antibody, V domains shown)
VH: B19 VH with H64K
VL: B19 VL with N97H
notes: MYT9345 variant, His at VL pos 97 (L3 07)
B26: MYT10948 (antibody, V domains shown)
VH: B19 VH with H64K
VL: B19 VL with A100H
notes: MYT9345 variant, His at VL pos 100 (L3 10)
B27: MYT10923 (antibody, V domains shown)
VH: B19 VH with H64K
VL: B19 VL with S28H
notes: MYT9345 variant, His at VL pos 28 (L1 05)
B28: MYT10919 (antibody, V domains shown)
VH: B19 VH with H64K
VL: B19 VL with Q24H
notes: MYT9345 variant, His at VL pos 24 (L1 01)
B29: MYT10924 (antibody, V domains shown)
VH: B19 VH with H64K
VL: B19 VL with V29H
notes: MYT9345 variant, His at VL pos 29 (L1 06)
B30: MYT10915 (antibody, V domains shown)
VH: B19 VH with H64K, Y100H
VL: B19 VL
notes: MYT9345 variant, His at VH pos 100 (H3 05)
B31: MYT10932 (antibody, V domains shown)
VH: B19 VH with H64K
VL: B19 VL with Y52H
notes: MYT9345 variant, His at VL pos 52 (L2 01)
B32: MYT10940 (antibody, V domains shown)
VH: B19 VH with H64K
VL: B19 VL with G92H
notes: MYT9345 variant, His at VL pos 92 (L3 02)
B33: MYT10912 (antibody, V domains shown)
VH: B19 VH with H64K, R97H
VL: B19 VL
notes: MYT9345 variant, His at VH pos 97 (H3 02)
B34: MYT10938 (antibody, V domains shown)
VH: B19 VH with H64K
VL: B19 VL with S58H
notes: MYT9345 variant, His at VL pos 58 (L2 07)
B35: MYT10922 (antibody, V domains shown)
VH: B19 VH with H64K
VL: B19 VL with Q27H
notes: MYT9345 variant, His at VL pos 27 (L1 04)
B36: MYT10934 (antibody, V domains shown)
VH: B19 VH with H64K
VL: B19 VL with S54H
notes: MYT9345 variant, His at VL pos 54 (L2 03)
B37: MYT10933 (antibody, V domains shown)
VH: B19 VH with H64K
VL: B19 VL with T53H
notes: MYT9345 variant, His at VL pos 53 (L2 02)
B38: MYT10910 (antibody, V domains shown)
VH: B19 VH with H64K, G65H
VL: B19 VL
notes: MYT9345 variant, His at VH pos 65 (H2 16)
B39: MYT10931 (antibody, V domains shown)
VH: B19 VH with H64K
VL: B19 VL with A36H
notes: MYT9345 variant, His at VL pos 36 (L1 13)

target: T1, Human PTK7 Protein, His Tag (Acro …); assay: BLI (Octet), antibody on anti-human Fc sensor, 50 nM PTK7; 1 = pH dependent binding

| Binder | binding result |
| --- | --- |
| B1 | binds |
| B2 | binds |
| B3 | binds |
| B4 | binds |
| B5 | binds |
| B6 | binds |
| B7 | binds |
| B8 | binds |
| B9 | binds |
| B10 | binds |
| B11 | binds |
| B12 | binds |
| B13 | binds |
| B14 | binds |
| B15 | binds |
| B16 | binds |
| B17 | binds |
| B18 | binds |

target: T2, Human PTK7 Protein, His Tag, Acro …; assay: BLI (Octet), antibody on anti-human Fc sensor, 50 nM PTK7 at pH 7.4, dissociation at pH 7.4 or 5.4; 2 = substantially similar binding relative to parent

| Binder | binding result |
| --- | --- |
| B19 | binds |
| B20 | binds |
| B21 | binds |
| B22 | binds |
| B23 | binds |
| B24 | binds |
| B25 | binds |
| B26 | binds |
| B27 | binds |
| B28 | binds |
| B29 | binds |
| B30 | binds |
| B31 | binds |
| B32 | binds |
| B33 | binds |
| B34 | binds |
| B35 | binds |
| B36 | binds |
| B37 | binds |
| B38 | binds |
| B39 | binds |
